In patent US20060246077 (published 2006):

Biological target: MUC18-V5-His (extracellular domain) (human, UniProt P43121)
Assay: SPR, average

Chain of MUC18-V5-His (extracellular domain) (P43121 1-559): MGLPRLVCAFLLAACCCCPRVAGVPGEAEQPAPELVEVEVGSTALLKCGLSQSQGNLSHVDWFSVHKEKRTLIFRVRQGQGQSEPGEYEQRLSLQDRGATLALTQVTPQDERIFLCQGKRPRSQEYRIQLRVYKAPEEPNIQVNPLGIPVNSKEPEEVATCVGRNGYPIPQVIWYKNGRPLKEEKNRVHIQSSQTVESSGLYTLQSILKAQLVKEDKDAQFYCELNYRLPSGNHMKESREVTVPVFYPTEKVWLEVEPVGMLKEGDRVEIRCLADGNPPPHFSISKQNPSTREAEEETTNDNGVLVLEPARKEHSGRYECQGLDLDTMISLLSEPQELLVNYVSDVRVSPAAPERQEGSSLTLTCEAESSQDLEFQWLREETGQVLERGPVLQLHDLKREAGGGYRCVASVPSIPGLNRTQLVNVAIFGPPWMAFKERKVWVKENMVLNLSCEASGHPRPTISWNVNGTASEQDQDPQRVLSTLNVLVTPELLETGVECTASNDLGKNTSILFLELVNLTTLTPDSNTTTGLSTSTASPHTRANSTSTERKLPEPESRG

Kd: 0.61 nM
B1: c3.19.1 (antibody, V domains shown)
VH: QVQLQESGPGLVKPSETLSLTCTVSGGSISSYYWSWIRQPPGKGLEWIGYIYYTWTSNYNPSLKSRVTISVDTSKNQFSLRLSSVTAADTAVYYCARDQGQWLLPDAFDIWGQGTMVTVSS
VL: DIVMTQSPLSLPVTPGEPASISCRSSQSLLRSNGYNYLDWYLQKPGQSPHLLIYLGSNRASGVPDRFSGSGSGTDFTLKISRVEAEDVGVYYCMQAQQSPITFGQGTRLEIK
